EC50 and pseudotype virus neutralization IC50 relative to Wuhan-Hu-1 data for two substances are collected here from patent US20220041715A1.

The target of assay [1] is CoV-2 RBD (V367F) (SARS-CoV-2) (UniProt P0DTC2). The assay can be described thus: ELISA. (In general: An ELISA detects its analyte on a solid surface through an enzyme-linked reagent.)
The target in assay [2] is CoV-2 RBD (N354D) (SARS-CoV-2) (UniProt P0DTC2). In words: ELISA.
For assay [3], the target named is CoV-2 RBD (W436R) (SARS-CoV-2) (UniProt P0DTC2). The assay can be described thus: ELISA.
Assay [4] concerns the target CoV-2 S (R683A, R685A) (SARS-CoV-2) (UniProt P0DTC2). The assay can be described thus: ELISA.
Assay [5] addresses CoV-2 S (D614G) (SARS-CoV-2) (UniProt P0DTC2). In words: ELISA.
Assay [6] concerns the target CoV-2 RBD (N354D, D364Y) (SARS-CoV-2) (UniProt P0DTC2). In words: ELISA.
Assay [7] addresses spike of SARS-CoV-2 variant B.1.1.7 (UK) on pseudotype virus (SARS-CoV-2) (UniProt P0DTC2). The assay can be described thus: cell-based or functional assay.
The target of assay [8] is spike of SARS-CoV-2 variant P.1 (Japanese/Brazilian) on pseudotype virus (SARS-CoV-2) (UniProt P0DTC2). In words: cell-based or functional assay.
For assay [9], the target named is spike of SARS-CoV-2 variant B.1.351 (South Africa) on pseudotype virus (SARS-CoV-2) (UniProt P0DTC2). The assay can be described thus: cell-based or functional assay.
Assay [10] concerns the target spike of SARS-CoV-2 variant B.1.427/B.1.429 (California) on pseudotype virus (SARS-CoV-2) (UniProt P0DTC2). In words: cell-based or functional assay.

The EC50 is the concentration that produces a half-maximal response. A low value points to a more potent agent. As for IVIG (Gamunex; Grifols) (antibody), the concentration giving a half-maximal response (EC50) was 1130 µg/mL in assay [1]; 1240 µg/mL in [2]; 1240 µg/mL in assay [3]; 2840 µg/mL in [4]; 1330 µg/mL in assay [5]; 1320 µg/mL in [6].

In the case of “rCIG (recombinant coronavirus-2 immune globulin; recombinant anti-coronavirus 19 hyperimmune gammaglobulin) (antibody)”, the pseudotype virus neutralization IC50 relative to Wuhan-Hu-1 in [7], in assay [8], in assay [9] and in [10] was less than 6 fold throughout. For the same substance, the EC50 stood at 0.07 µg/mL in assay [1]; 0.07 µg/mL in assay [2]; 0.07 µg/mL in assay [3]; 0.09 µg/mL in assay [4]; 0.05 µg/mL in assay [5]; 0.08 µg/mL in [6].
